Measurements from the supplement of paper PMC9112550, “Optimization of the antimicrobial peptide Bac7 by deep mutational scanning” (BMC Biology, 2022).

Each sequence was assayed on Escherichia coli TOP10 (assay: shrunken log2 fold change of peptide-encoding DNA abundance (4.5 h post-induction vs induction); higher = less antimicrobial activity (less host growth inhibition)). Conditions: time post-induction: 4.5 h; library: site-saturation at positions 5, 18, 19, 20.
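Note: peptides expressed intracellularly from a pBAD plasmid library in pooled LB shake-flask culture, induced with 0.3% L-arabinose, DNA abundance read by NGS, three biological replicates, DESeq2 with apeglm shrinkage.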

Sequence | shrunken log2 fold change
RRIRRRPPRLPRPRPRPNIEPRP | 0.0519
RRIRHRPPRLPRPRPRPHSLPRP | -0.00992
RRIRSRPPRLPRPRPRPFTHPRP | -0.0568
RRIRPRPPRLPRPRPRPSHMPRP | -0.466
RRIRPRPPRLPRPRPRPHQHPRP | 2.05
RRIRDRPPRLPRPRPRPRSLPRP | -0.0214
RRIRIRPPRLPRPRPRPYTTPRP | -0.0313
RRIRMRPPRLPRPRPRPRTVPRP | 0.472
RRIRFRPPRLPRPRPRPCDEPRP | 0.112
RRIRPRPPRLPRPRPRPQDTPRP | -0.229
RRIRDRPPRLPRPRPRPILYPRP | -0.131
RRIRARPPRLPRPRPRPVQWPRP | 0.546
RRIRRRPPRLPRPRPRPAAGPRP | 0.326
RRIRMRPPRLPRPRPRPWDGPRP | 0.0785
RRIRNRPPRLPRPRPRPLSDPRP | -0.0613
RRIRWRPPRLPRPRPRPFWTPRP | 0.0519
RRIRGRPPRLPRPRPRPECTPRP | 2.08
RRIRTRPPRLPRPRPRPVGCPRP | 0.304
RRIRERPPRLPRPRPRPMNNPRP | -0.637
RRIRQRPPRLPRPRPRPAHSPRP | 0.426
RRIRHRPPRLPRPRPRPFQKPRP | 0.00797
RRIRGRPPRLPRPRPRPPRTPRP | 1.33

Sequence | shrunken log2 fold change
RRIRRRPPRLPRPRPRPLDPPRP | 0.5
RRIRLRPPRLPRPRPRPRHPPRP | 0.163
RRIRMRPPRLPRPRPRPWHRPRP | -0.0718
RRIRRRPPRLPRPRPRPDKHPRP | 0.157
RRIRNRPPRLPRPRPRPGCSPRP | 0.121
RRIRYRPPRLPRPRPRPFINPRP | -1.17
RRIRHRPPRLPRPRPRPQLDPRP | 0.153
RRIRKRPPRLPRPRPRPAAAPRP | 0.896
RRIRARPPRLPRPRPRPTDAPRP | 0.607
RRIRSRPPRLPRPRPRPNVDPRP | 0.0085
RRIRERPPRLPRPRPRPDSMPRP | -0.076
RRIRDRPPRLPRPRPRPITWPRP | 0.098
RRIRCRPPRLPRPRPRPNDFPRP | -0.241
RRIRKRPPRLPRPRPRPRHIPRP | -0.0145
RRIRKRPPRLPRPRPRPNPCPRP | 0.117
RRIRKRPPRLPRPRPRPKVMPRP | 0.0802
RRIRPRPPRLPRPRPRPINQPRP | -0.24
RRIRTRPPRLPRPRPRPQPYPRP | -0.322
RRIRHRPPRLPRPRPRPYFSPRP | -0.129
RRIRMRPPRLPRPRPRPNDFPRP | 0.0282
RRIRNRPPRLPRPRPRPKTCPRP | 0.0411
RRIRSRPPRLPRPRPRPTVKPRP | -0.188

Sequence | shrunken log2 fold change
RRIRPRPPRLPRPRPRPFQKPRP | -0.163
RRIRSRPPRLPRPRPRPCNGPRP | -0.0821
RRIRSRPPRLPRPRPRPWKHPRP | -0.0883
RRIRARPPRLPRPRPRPLREPRP | 1.16
RRIRVRPPRLPRPRPRPDWRPRP | 0.141
RRIRPRPPRLPRPRPRPTWFPRP | 0.0698
RRIRPRPPRLPRPRPRPCIVPRP | -0.199
RRIRFRPPRLPRPRPRPAMKPRP | -0.345
RRIRERPPRLPRPRPRPRRAPRP | 0.566
RRIRQRPPRLPRPRPRPPLRPRP | 0.49
RRIRVRPPRLPRPRPRPNMLPRP | -0.432
RRIRTRPPRLPRPRPRPWERPRP | -0.0102
RRIRSRPPRLPRPRPRPEEQPRP | 0.64
RRIRWRPPRLPRPRPRPTTTPRP | 0.567
RRIRHRPPRLPRPRPRPAKEPRP | 0.0203
RRIRIRPPRLPRPRPRPFEVPRP | -0.162
RRIRSRPPRLPRPRPRPLSYPRP | -0.464
RRIRPRPPRLPRPRPRPEHSPRP | -0.0353
RRIRNRPPRLPRPRPRPLMMPRP | -0.193
RRIRHRPPRLPRPRPRPARMPRP | -0.0768
RRIRYRPPRLPRPRPRPQVIPRP | -0.0134
RRIRFRPPRLPRPRPRPLTYPRP | -0.573

Sequence | shrunken log2 fold change
RRIRVRPPRLPRPRPRPMDGPRP | 0.145
RRIRARPPRLPRPRPRPKITPRP | -0.0367
RRIRARPPRLPRPRPRPSMNPRP | -0.032
RRIRARPPRLPRPRPRPQIWPRP | 0.166
RRIRYRPPRLPRPRPRPDELPRP | 0.0702
RRIRQRPPRLPRPRPRPVHTPRP | -0.168
RRIRCRPPRLPRPRPRPDEKPRP | 0.118
RRIRLRPPRLPRPRPRPVKYPRP | -0.446
RRIRWRPPRLPRPRPRPPWCPRP | 0.183
RRIRKRPPRLPRPRPRPYVPPRP | -0.423
RRIRRRPPRLPRPRPRPEAMPRP | -0.0491
RRIRWRPPRLPRPRPRPCGPPRP | 0.183
RRIRERPPRLPRPRPRPPIIPRP | -0.562
RRIRSRPPRLPRPRPRPRFHPRP | -0.302
RRIRLRPPRLPRPRPRPCHIPRP | -0.113
RRIRIRPPRLPRPRPRPMKDPRP | -0.135
RRIRYRPPRLPRPRPRPHCRPRP | -0.372
RRIRVRPPRLPRPRPRPRDCPRP | 2.64
RRIRGRPPRLPRPRPRPHWWPRP | 0.66
RRIRWRPPRLPRPRPRPPAMPRP | 1.57
RRIRLRPPRLPRPRPRPDEGPRP | -0.018
RRIRIRPPRLPRPRPRPVNMPRP | -0.103

Sequence | shrunken log2 fold change
RRIRRRPPRLPRPRPRPKDIPRP | -0.193
RRIRPRPPRLPRPRPRPVDVPRP | -0.0323
RRIRQRPPRLPRPRPRPMPDPRP | -0.0292
RRIRVRPPRLPRPRPRPTSSPRP | -0.0575
RRIRDRPPRLPRPRPRPAVDPRP | -0.0491
RRIRMRPPRLPRPRPRPDVIPRP | -0.0756
RRIRGRPPRLPRPRPRPPKEPRP | 0.176
RRIRCRPPRLPRPRPRPHDCPRP | -0.0825
RRIRKRPPRLPRPRPRPAYNPRP | 0.0771
RRIRYRPPRLPRPRPRPFCEPRP | -0.456
RRIRVRPPRLPRPRPRPLEHPRP | -0.22
RRIRVRPPRLPRPRPRPCRCPRP | -0.239
RRIRRRPPRLPRPRPRPTSRPRP | 0.312
RRIRERPPRLPRPRPRPFPIPRP | 0.118
RRIRCRPPRLPRPRPRPHAKPRP | -0.446
RRIRIRPPRLPRPRPRPTHAPRP | 0.216
RRIRNRPPRLPRPRPRPGVVPRP | 0.176
RRIRARPPRLPRPRPRPLQQPRP | 0.752
RRIRDRPPRLPRPRPRPVNTPRP | -0.327
RRIRQRPPRLPRPRPRPANEPRP | -0.104
RRIRDRPPRLPRPRPRPGTLPRP | -0.00146
